These results are taken from publication PMC9065369 (Cell Reports, 2022).

The experiment concerns the target Mono ubiquitin (UniProt P0CG48 1-76). Briefly: ITC.

B1: hsHDAC6 (1108-1215) (domain or fragment)
chain: TPLPWCPHLVAVCPIPAAGLDVTQPCGDCGTIQENWVCLSCYQVYCGRYINGHMLQHHGNSGHPLVLSYIDLSAWCYYCQAYVHHQALLDVKNIAHQNKFGEDMPHPH
On to B1, for which the Kd was found to be 5.16 ± 0.47 µM.
